To fix the notation:
B1: Example 14087 (peptide)
peptide: FFXPDVFXPWYLCGX
modifications: as m16 (INT 1400K); Pra triazole-linked to vitamin E succinate 5-azidopentylamide
B2: Example 14084 (peptide)
peptide: {CH2CO}-[Phe(3,4,5-F3)][NMeF][NMeNle][dHyp]DV[NMeF]D[dP]WYLCG[Pra″]([triazole-(S)‑3‑carboxy‑3‑aminopropyl-Palmitoyl])
modifications: thioether N-13; not fully specified; printed as ClAc-F3Phe-mPhe-mNle-dHyp-Asp-Val-mPhe-Asp-dPro-Trp-Tyr-Leu-Cys-Gly-[(S)-propargylglycine]
B3: Example 14088 (peptide)
peptide: FFXPDVFDPWYLCGX
modifications: as m17 (INT 1400L); Pra triazole-linked to vitamin E succinate 5-azidopentylamide
B4: INT-1400J (peptide)
peptide: {CH2CO}-Y[NMeA]DPHK[Hyp]WK[Trp(1-CH2CO)][NMeNle][NMeNle]ECG[Pra]
modifications: thioether N-14; not fully specified (C-terminus); printed as ClAc-Tyr-mAla-Asp-Pro-His-Lys-Hyp-Trp-Lys-Trp(1-carboxymethyl)-mNle-mNle-Glu-Cys-Gly-[(S)-propargylglycine], cyclised ClAc-Cys
notes: also called Intermediate 1400J

Starred links: 1 amine or outer side, 2 acyl side, 3 side chain; linkers in the order of their positions; H or OH if unused. Positions of bridges follow the written chain, without caps; N, C: chain ends. Non-standard residues stand in square brackets, D forms with d. Groups on a side chain read outwards from the residue. Primed or numbered codes have the meaning given here. No end group written: not given here. *: point of attachment. PEG8′ = PEG8 unit (23-azido-3,6,9,12,15,18,21-heptaoxatricosyl, i.e. an eight-unit PEG spacer) linking the triazole to vitamin E succinate; Pra′ = propargylglycine (built in as LPH), clicked to a 1-substituted triazol-4-yl-alanine, O=C([C@H](Cc1cn([*:3])nn1)N[*:1])[*:2]; X1 = (S)‑3‑carboxy‑3‑(15-carboxypentadecanoylamino)propyl, O=C(O)CCCCCCCCCCCCCCC(=O)N[C@@H](CC*)C(=O)O; Pra″ = its azide, alkyne or alkene has reacted where a group follows in round brackets; X2 = (S)‑3‑carboxy‑3‑palmitamidopropyl, CCCCCCCCCCCCCCCC(=O)N[C@@H](CC*)C(=O)O; Pra(3) = propargylglycine, clicked to an azide to give a triazolyl-alanine; triazole = 1,2,3-triazole formed by click of the Pra alkyne with the azide; Trp(1-CH2CO) = O=C([C@H](Cc1cn(CC(=O)[*:3])c2ccccc12)N[*:1])[*:2]; Phe(3,4,5-F3) = N[C@@H](Cc1cc(F)c(F)c(F)c1)C(=O)O; Biotin = O=C1N[C@H]2[C@H](CS[C@H]2CCCCC(=O)*)N1; C18 diacid = O=C(O)CCCCCCCCCCCCCCCCC(=O)*; Phe(4-F) = N[C@@H](Cc1ccc(F)cc1)C(=O)O; γGlu = O=C(O)[C@H](CCC(=O)[*:2])N[*:1]; Palmitoyl = CCCCCCCCCCCCCCCC(=O)*; Hyp = O=C(O)[C@@H]1C[C@@H](O)CN1; NMeF = CN[C@@H](Cc1ccccc1)C(=O)O; NMeE = CN[C@@H](CCC(=O)O)C(=O)O; dHyp = O=C(O)[C@H]1C[C@H](O)CN1; NMeNle = CCCC[C@H](NC)C(=O)O; Suc = O=C(CCC(=O)[*:2])[*:1]; triazole″ = not defined here; Pip = O=C(O)[C@@H]1CCCCN1; NMeA = CN[C@@H](C)C(=O)O; Orn = NCCC[C@H](N)C(=O)O; PEG4′ = not defined here; PEG7′ = not defined here; Pra = C#CC[C@H](N)C(=O)O; Dab = NCC[C@H](N)C(=O)O; Dap = NC[C@H](N)C(=O)O; Sar = CNCC(=O)O

T1 sequence (Q9NZQ7 other isoform, or with tags, fused parts or gaps limits assumed): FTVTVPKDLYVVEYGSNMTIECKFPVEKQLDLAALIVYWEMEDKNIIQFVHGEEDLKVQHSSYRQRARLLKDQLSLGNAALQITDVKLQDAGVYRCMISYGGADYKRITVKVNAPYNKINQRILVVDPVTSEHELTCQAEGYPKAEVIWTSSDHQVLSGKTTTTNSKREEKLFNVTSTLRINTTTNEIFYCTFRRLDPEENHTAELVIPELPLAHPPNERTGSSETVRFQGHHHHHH

One assay has as its target T1, Recombinant Human PD-L1-TVMV-His (human, UniProt Q9NZQ7 19-239).
T1 construct: expressed in HEK293T cells; also called PD-L1-His; hPD-L1(19-239)-TVMV-His
The assay is described as follows: HTRF vs PD-1-Ig; B = IC50 0.01-0.099 µM. Here is the method: (§1) Homogenous Time-Resolved Fluorescence (HTRF) Assays of Binding of Soluble PD-1 to Soluble PD-L1. Soluble PD-1 and soluble PD-L1 refers to proteins with carboxyl-end truncations that remove the transmembrane-spanning regions and are fused to heterologous sequences, specifically the Fc portion of the human immunoglobuling G sequence (Ig) or the hexahistidine epitope tag (His). All binding studies were performed in an HTRF assay buffer consisting of dPBS supplemented with 0.1% (w/v) bovine serum albumin and 0.05% (v/v) Tween-20. For the PD-1-Ig/PD-L1-His binding assay, inhibitors were pre-incubated with PD-L1-His (10 nM final) for 15 m in 4 μl of assay buffer, followed by addition of PD-1-Ig (20 nM final) in 1 μl of assay buffer and further incubation for 15 m. PD-L1 fusion proteins from either human, cynomologous macaques, mouse, or other species were used. HTRF detection was achieved using europium crypate-labeled anti-Ig monoclonal antibody (1 nM final) and allophycocyanin (APC) labeled anti-His monoclonal antibody (20 nM final). Antibodies were diluted in HTRF detection buffer and 5 μl was dispensed on top of binding reaction. The reaction was allowed to equilibrate for 30 minutes and signal (665 nm/620 nm ratio) was obtained using an EnVision fluorometer. Additional binding assays were established between PD-I-Ig/PD-L2-His (20 and 5 nM, respectively), CD80-His/PD-L1-Ig (100 and 10 nM, respectively) and CD80-His/CTLA4-Ig (10 and 5 nM, respectively). Binding/competition studies between biotinylated Compound No. 71 and human PD-L1-His were performed as follows. Macrocyclic peptide inhibitors were pre-incubated with PD-L1-His (10 nM final) for 60 minutes in 4 μl of assay buffer followed by addition of biotinylated Compound No. 71 (0.5 nM final) in 1 μl of assay buffer. Binding was allowed to equilibrate for 30 minutes followed by addition of europium crypated labeled Streptavidin (2.5 pM final) and APC-labeled anti-His (20 nM final) in 5 μl of HTRF buffer. The reaction was allowed to equilibrate for 30 m and signal (665 nm/620 nm ratio) was obtained using an EnVision fluorometer.
Take {CH2CO}-Y[NMeA]DPHK[Hyp]WK[Trp(1-CH2CO)][NMeNle][NMeNle]ECG[Pra′]([triazole-X1]) (thioether N-14) [Example 14078]: the half-maximal inhibitory concentration (IC50) lay within 10 to 99 nM.

A further assay has as its target T1, Recombinant Human PD-L1-TVMV-His. The assay is described as follows: HTRF vs PD-1-Ig; A = IC50 0.10-1.6 µM. Here is the method: as §1
{CH2CO}-Y[NMeA]NP[Dap]L[Hyp]W[Dab][Trp(1-CH2CO)][NMeNle][NMeNle]LCGG[Pra″]([triazole-(S)‑4‑azido‑2‑palmitamidobutanoic acid]) (thioether N-14 (inferred)) [Example 13122]: the IC50 was in the range of 100 to 1600 nM. In the case of B1, the IC50 fell in the range of 100 to 1600 nM.

{CH2CO}-[Phe(3,4,5-F3)][NMeF][NMeNle][dP]DV[NMeF][Orn][dP]WYLCG[Pra′]([triazole-X2]) (thioether N-13) [Example 14081]: the IC50 is 100 to 1600 nM.

On to {CH2CO}-Y[NMeA]DPHK[Hyp]WKW[NMeNle][NMeNle]ECG[Pra(3)]([triazole″-PEG4′-Suc-vitamin E])G (thioether N-14; reading uncertain) [Example 14060], for which the 50% inhibitory concentration (IC50) lay in the range of 100 to 1600 nM.

A further assay shares this target. The assay is described as follows: HTRF vs PD-1-Ig. Here is the method: as §1
For B2, the IC50 was determined as 627 nM. Consider {CH2CO}-F[NMeF][NMeNle][Sar]DV[NMeF]Y[NMeE]WYLCGGGK([PEG4‑propionyl-Biotin])-NH2 (thioether N-13) [Example 3620], for which the IC50 came out at 9 nM. As to {CH2CO}-Y[NMeA]DPHK[Hyp]WK[Trp(1-CH2CO)][NMeNle][NMeNle]ECG[Pra′]([triazole-X2]) (thioether N-14) [Example 14072], the 50% inhibitory concentration (IC50) was 8.5 nM.

Take {CH2CO}-Y[NMeA]NP[Dap]L[Hyp]W[Dab][Trp(1-CH2CO)][NMeNle][NMeNle]LCGG[Pra″]([triazole-PEG7′-γGlu-C18 diacid]) (thioether N-14 (inferred)) [Example 13123]: the 50% inhibitory concentration (IC50) came out at 150 nM.

In the case of {CH2CO}-[Phe(4-F)][Pip]DP[Dap]L[Hyp]W[Dab][Trp(1-CH2CO)][NMeNle][NMeNle]LCG[Dab]([γGlu-C18 diacid]) (thioether N-14 (inferred)) [Example 13150], the IC50 turned out to be 20.9 nM. Still for that read-out and setting: next, {CH2CO}-Y[NMeA]DPHQ[Hyp]WSW[NMeNle][NMeNle]ECG[Pra(3)]([triazole″-PEG8′-Suc-vitamin E])G (thioether N-14; reading uncertain) [Example 14055]: 388 nM; B3: 799 nM. For the molecule {CH2CO}-Y[NMeA]DPHK[Hyp]WKW[NMeNle][NMeNle]ECG[Pra′]([triazole-X1]) (thioether N-14) [Example 14067], the IC50 was determined as 10.4 nM. In the case of {CH2CO}-Y[NMeA]DPHK[Hyp]WK[Trp(1-CH2CO)][NMeNle][NMeNle]ECG[Pra′]([triazole-X1]) (thioether N-14) [Example 14078], the half-maximal inhibitory concentration (IC50) was found to be 10.8 nM. Still for that read-out and setting: in the case of B4 it was 8.8 nM.

Values taken from patent publication US20160137696A1 (Bristol-Myers Squibb, published 2016).
